The text below walks through data of patent publication US20220017622A1 (Pfizer, published 2022).

Residue numbers refer to the chain shown, from its start. Names may count otherwise.

The target in test [1] is T1, human B7-H4 extracellular domain (human, UniProt Q7Z7D3 29-258).
T1 construct: For SPR it says only human B7-H4 ECD; also called Hu B7-H4 ECD; huB7-H4 ECD
T1 sequence: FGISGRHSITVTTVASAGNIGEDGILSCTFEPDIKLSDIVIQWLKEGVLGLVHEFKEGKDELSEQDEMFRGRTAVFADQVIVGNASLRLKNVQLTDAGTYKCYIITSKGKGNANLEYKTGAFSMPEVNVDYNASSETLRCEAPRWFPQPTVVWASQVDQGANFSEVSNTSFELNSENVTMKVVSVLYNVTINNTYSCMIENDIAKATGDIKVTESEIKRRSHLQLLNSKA
The test is described as follows: competition ELISA on coated huB7-H4 ECD; competitor biotinylated 0052 (by series, not given); second value of the fourth IC50 column.

Test [2] concerns the target T1, human B7-H4 extracellular domain. The test is described as follows: SPR Biacore 8K 25 C; mAb captured on anti-human Fc, huB7-H4 ECD analyte, 1:1 fit.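 Note: antibodies tested as IgG1, running buffer HBS-EP+ at pH 7.4, rate constants and affinity from a 1:1 Langmuir model fit.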
Test [3] shares this target. The test is described as follows: competition ELISA on coated huB7-H4 ECD; competitor biotinylated 0052 (by series, not given); first of the four IC50 [nM] columns; competitor not given.
Test [4] concerns the target T2, human CD3 (delta/epsilon heterodimer) (human, UniProt P07766 23-126; P04234 22-105).
T2 construct: captured on an anti-His chip, so it carries a His tag; also called huCD3
The test is described as follows: SPR 37 C; CD3 delta/epsilon on anti-His chip, bispecific (transient expi293) analyte.

The target of test [5] is T3, cyno CD3 (delta/epsilon heterodimer) (cyno, UniProt Q95LI5 22-117; Q95LI8 22-105).
T3 construct: also called cyCD3
Described as above.

Test [6] deals with T2, human CD3 (delta/epsilon heterodimer). The test is described as follows: SPR 37 C; CD3 delta/epsilon on anti-His chip, bispecific analyte.
The target in test [7] is T3, cyno CD3 (delta/epsilon heterodimer). The description is as above.
The target of test [8] is T4, human CD3 on primary human T cells (human, UniProt P07766 23-207; P04234 22-171).
T4 construct: whole, on cells; On cells the whole CD3/TCR complex is present
The test is described as follows: flow cytometry on primary human T cells, 37 C.

Test [9] has as its target T5, cynomolgus CD3 on cells from cynomolgus PBMCs (cynomolgus, UniProt Q95LI5 22-198; Q95LI8 22-171).
T5 construct: whole, on cells; also called Cyno PBMC
The test is described as follows: flow cytometry on cyno PBMC, 37 C.

Test [10] concerns the target T2, human CD3 (delta/epsilon heterodimer). The test is described as follows: SPR 37 C; CD3 delta/epsilon on anti-His chip, bispecific (stable CHO) analyte.
Test [11] addresses T3, cyno CD3 (delta/epsilon heterodimer). Described as above.
Test [12] concerns the target T2, human CD3 (delta/epsilon heterodimer). The test is described as follows: SPR 37 C; CD3 delta/epsilon on anti-His chip, bispecific (IgG1 scaffold) analyte.
For test [13], the target named is T6, human B7-H4 extracellular domain (human, UniProt Q7Z7D3 29-258).
T6 construct: Soluble ECD used as SPR analyte; also called huB7-H4 ECD; huB7-H4
T6 sequence: T1 sequence
The test is described as follows: SPR 37 C; bispecific (IgG1 scaffold) on anti-hFc chip, ECD analyte.

Another test has as its target T7, human B7-H4 on cells (human, UniProt Q7Z7D3 25-282).
T7 sequence (looked up): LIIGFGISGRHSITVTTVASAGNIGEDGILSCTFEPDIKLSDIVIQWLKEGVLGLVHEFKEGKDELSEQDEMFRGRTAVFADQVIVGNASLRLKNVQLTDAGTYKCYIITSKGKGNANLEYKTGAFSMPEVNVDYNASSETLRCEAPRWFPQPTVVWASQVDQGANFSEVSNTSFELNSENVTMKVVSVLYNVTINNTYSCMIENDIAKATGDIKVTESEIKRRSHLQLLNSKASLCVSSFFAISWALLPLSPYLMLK
The test is described as follows: cell-based or functional assay.

T2 sequence (P07766 23-126, stated change not applied, chain 1 of 2): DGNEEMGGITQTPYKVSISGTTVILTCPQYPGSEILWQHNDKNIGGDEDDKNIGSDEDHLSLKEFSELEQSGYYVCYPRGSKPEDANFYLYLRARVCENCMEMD
T2 sequence (P04234 22-105, stated change not applied, chain 2 of 2): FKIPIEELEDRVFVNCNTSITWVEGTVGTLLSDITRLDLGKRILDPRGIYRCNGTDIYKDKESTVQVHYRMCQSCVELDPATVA
T3 sequence (Q95LI5 22-117, stated change not applied, chain 1 of 2): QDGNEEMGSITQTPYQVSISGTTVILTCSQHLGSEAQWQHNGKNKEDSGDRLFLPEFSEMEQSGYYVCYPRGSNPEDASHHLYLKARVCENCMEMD
T3 sequence (Q95LI8 22-105, stated change not applied, chain 2 of 2): as the sequence (P04234 22-105, stated change not applied, chain 2 of 2) above, with I5V, N15K, I20V, S32T, D33N, I34N, T64A, S74N, V83L counted along it
T5 sequence (Q95LI5 22-198, chain 1 of 2): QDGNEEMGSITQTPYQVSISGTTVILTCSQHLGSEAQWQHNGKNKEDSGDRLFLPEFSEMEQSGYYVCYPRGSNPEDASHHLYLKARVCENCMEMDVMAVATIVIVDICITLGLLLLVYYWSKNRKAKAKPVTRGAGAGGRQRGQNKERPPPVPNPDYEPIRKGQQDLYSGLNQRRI
T5 sequence (Q95LI8 22-171, chain 2 of 2): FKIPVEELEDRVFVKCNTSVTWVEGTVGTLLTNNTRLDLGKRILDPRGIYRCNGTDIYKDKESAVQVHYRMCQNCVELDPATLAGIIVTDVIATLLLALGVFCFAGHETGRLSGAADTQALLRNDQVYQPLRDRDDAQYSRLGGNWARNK
T4 sequence (P07766 23-207, chain 1 of 2): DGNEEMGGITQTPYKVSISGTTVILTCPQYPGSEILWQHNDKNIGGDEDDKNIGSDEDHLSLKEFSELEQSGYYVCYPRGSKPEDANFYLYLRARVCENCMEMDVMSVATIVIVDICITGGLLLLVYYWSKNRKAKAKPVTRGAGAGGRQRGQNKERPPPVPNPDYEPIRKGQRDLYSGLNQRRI
T4 sequence (P04234 22-171, chain 2 of 2): as the sequence (Q95LI8 22-171, chain 2 of 2) above, with V5I, K15N, V20I, T32S, N33D, N34I, A64T, N74S, L83V, R141H counted along it

B1: B7-H4 antibody 0047 (antibody, human IgG1, kappa, V domains shown)
VH: QVQLQQWGAGLLKPSETLPLTCAVYGGSFSGYYWNWIRQPPGKGLEWIGEINHSGSATYNPSLKSRVTISVDTSKNHFSLKLSSVTAADTAVYFCARGLYNWNVDHWGQGTLVTVSS
VL: DIQMTQSPSSLSASVGDRVTITCRASQGIRNDLGWYQQKPGKAPKRLIYAASSLQSGVPSRFSGSGSGTEFTLTISSLQPEDFATYYCLQHNSYPRTFGGGTKVEIKR
notes: also called 7H7
On to B1, for which the IC50 in [1] amounted to 1 nM. Further, in [2], binding was put at a Kd of 3.79 nM, the koff came to 0.000635 s⁻¹ and the on-rate constant (kon) was found to be 168000 M⁻¹ s⁻¹. For the same molecule, the 50% inhibitory concentration (IC50) in test [3] amounted to 4.8 nM.

B2: B7-H4xCD3 bispecific antibody 1167 (bispecific antibody)
heavy 1: EVQLLESGGGLVQPGGSLRLSCAASGFTFSSYAMSWVRQAPGKGLEWVSAISGGGGSTYYADSVKGRFTISRDNSKNTLYLQMNSLRAEDTAVYYCARDIQWYGESTLFDYWGQGTLVTVSSASTKGPSVFPLAPCSRSTSESTAALGCLVKDYFPEPVTVSWNSGALTSGVHTFPAVLQSSGLYSLSSVVTVPSSNFGTQTYTCNVDHKPSNTKVDKTVERKCEVECPECPAPPVAGPSVFLFPPKPKDTLMISRTPEVTCVVVAVSHEDPEVQFNWYVDGVEVHNAKTKPREEQFNSTFRVVSVLTVVHQDWLNGKEYKCKVSNKGLPSSIEKTISKTKGQPREPQVYTLPPSREEMTKNQVSLTCEVKGFYPSDIAVEWESNGQPENNYKTTPPMLDSDGSFFLYSKLTVDKSRWQQGNVFSCSVMHEALHNHYTQKSLSLSPGK
light 1: DIQMTQSPSSLSASVGDRVTITCRASQSTRSHLAWYQQKPGKAPKLLIYKASSLEGGVPSRFSGSGSGTDFTLTISSLQPEDFATYYCQQYGSYSRTFGQGTKVEIKRTVAAPSVFIFPPSDEQLKSGTASVVCLLNNFYPREAKVQWKVDNALQSGNSQESVTEQDSKDSTYSLSSTLTLSKADYEKHKVYACEVTHQGLSSPVTKSFNRGEC
heavy 2: EVQLVESGGGLVQPGGSLRLSCAASGFTFSDYYMTWVRQAPGKGLEWVAFIRNQARGYTSDHNPSVKGRFTISRDNAKNSLYLQMNSLRAEDTAVYYCARDRPSYYVLDYWGQGTTVTVSSASTKGPSVFPLAPCSRSTSESTAALGCLVKDYFPEPVTVSWNSGALTSGVHTFPAVLQSSGLYSLSSVVTVPSSNFGTQTYTCNVDHKPSNTKVDKTVERKCRVRCPRCPAPPVAGPSVFLFPPKPKDTLMISRTPEVTCVVVAVSHEDPEVQFNWYVDGVEVHNAKTKPREEQFNSTFRVVSVLTVVHQDWLNGKEYKCKVSNKGLPSSIEKTISKTKGQPREPQVYTLPPSREEMTKNQVSLTCLVKGFYPSDIAVEWESNGQPENNYKTTPPMLDSDGSFFLYSRLTVDKSRWQQGNVFSCSVMHEALHNHYTQKSLSLSPGK
light 2: DIQMTQSPSSLSASVGDRVTITCTSSQSLFNVRSQKNYLAWYQQKPGKAPKLLIYWASTRESGVPSRFSGSGSGTDFTLTISSLQPEDFATYYCKQSYDLFTFGGGTKVEIKRTVAAPSVFIFPPSDEQLKSGTASVVCLLNNFYPREAKVQWKVDNALQSGNSQESVTEQDSKDSTYSLSSTLTLSKADYEKHKVYACEVTHQGLSSPVTKSFNRGEC
notes: Chains 1-2: B7-H4 arm; chains 3-4: CD3 arm; Full-length chains; IgG2 dA D265A EEE/RRR
On to B2, for which the Kd turned out to be 62.5 nM in [4]; 70.8 nM in test [5]; 63.5 nM in test [6]; 66.8 nM in [7]; 49.8 nM in test [10]; 58.8 nM in test [11]. The off-rate constant (koff) in test [4] is 0.0309 s⁻¹; in [5], 0.0317 s⁻¹; in [6], roughly 0.0337 s⁻¹; in [7], roughly 0.0338 s⁻¹; in test [10] it was 0.0317 s⁻¹; in test [11] it was 0.0305 s⁻¹. Also, the on-rate constant (kon) is 499000 M⁻¹ s⁻¹ in [4]; 449000 M⁻¹ s⁻¹ in [5]; 531000 M⁻¹ s⁻¹ in test [6]; 506000 M⁻¹ s⁻¹ in test [7]; 638000 M⁻¹ s⁻¹ in [10]; 519000 M⁻¹ s⁻¹ in test [11]. Moreover, the half-maximal effective concentration (EC50) came out at 64 nM in test [8] and 46 nM in test [9].

B3: B7-H4xCD3 bispecific antibody 1156 (bispecific antibody, IgG2)
heavy 1: EVQLVESGGGLVQPGGSLRLSCAVSGGSFSGYYWNWVRQAPGKGLEWIGEINHSGSATYNPSLKSRVTISVDTAKNSLYLQMNSLRAEDTAVYYCARGLYNWNVDHWGQGTLVTVSSASTKGPSVFPLAPCSRSTSESTAALGCLVKDYFPEPVTVSWNSGALTSGVHTFPAVLQSSGLYSLSSVVTVPSSNFGTQTYTCNVDHKPSNTKVDKTVERKCEVECPECPAPPVAGPSVFLFPPKPKDTLMISRTPEVTCVVVAVSHEDPEVQFNWYVDGVEVHNAKTKPREEQFNSTFRVVSVLTVVHQDWLNGKEYKCKVSNKGLPSSIEKTISKTKGQPREPQVYTLPPSREEMTKNQVSLTCEVKGFYPSDIAVEWESNGQPENNYKTTPPMLDSDGSFFLYSKLTVDKSRWQQGNVFSCSVMHEALHNHYTQKSLSLSPGK
light 1: DIQMTQSPSSLSASVGDRVTITCRASQGIRNDLGWYQQKPGKAPKRLIYAASSLQSGVPSRFSGSGSGTDFTLTISSLQPEDFATYYCLQHNAYPRTFGGGTKVEIKRTVAAPSVFIFPPSDEQLKSGTASVVCLLNNFYPREAKVQWKVDNALQSGNSQESVTEQDSKDSTYSLSSTLTLSKADYEKHKVYACEVTHQGLSSPVTKSFNRGEC
heavy 2: B2 heavy 2
light 2: B2 light 2
notes: as for B2
As to B3, in test [6], the Kd worked out at 62.4 nM, the koff is roughly 0.0339 s⁻¹ and the kon was determined as 543000 M⁻¹ s⁻¹. In [7], this molecule came in with a Kd of 68.8 nM, a koff of roughly 0.0341 s⁻¹ and a kon of 496000 M⁻¹ s⁻¹. The molecule also registered an EC50 in test [8] of 44.8 nM. The concentration giving a half-maximal response (EC50) in [9] is 27 nM.

B4: B7-H4xCD3 bispecific antibody 0089 (bispecific antibody, IgG1)
heavy 1: QVQLQQWGAGLLKPSETLSLTCAVYGGSFSGYYWNWIRQPPGKGLEWIGEINHSGSTKYNPSLKSRVTISGDTSKNQFSLKLNSVTAADTAVYYCVRGLYNWNVDSWGQGTLVTVSSASTKGPSVFPLAPSSKSTSGGTAALGCLVKDYFPEPVTVSWNSGALTSGVHTFPAVLQSSGLYSLSSVVTVPSSSLGTQTYICNVNHKPSNTKVDKKVEPKSCEKTHTCPECPAPEAAGAPSVFLFPPKPKDTLMISRTPEVTCVVVDVSHEDPEVKFNWYVDGVEVHNAKTKPREEQYNSTYRVVSVLTVLHQDWLNGKEYKCKVSNKALPAPIEKTISKAKGQPREPQVYTLPPSREEMTKNQVSLTCEVKGFYPSDIAVEWESNGQPENNYKTTPPVLDSDGSFFLYSKLTVDKSRWQQGNVFSCSVMHEALHNHYTQKSLSLSPG
light 1: B3 light 1 with A50V, D70E, A93S, R96Y, G100Q, V104L
heavy 2: EVQLVESGGGLVQPGGSLRLSCAASGFTFSDYYMTWVRQAPGKGLEWVAFIRNQARGYTSDHNPSVKGRFTISRDNAKNSLYLQMNSLRAEDTAVYYCARDRPSYYVLDYWGQGTTVTVSSASTKGPSVFPLAPSSKSTSGGTAALGCLVKDYFPEPVTVSWNSGALTSGVHTFPAVLQSSGLYSLSSVVTVPSSSLGTQTYICNVNHKPSNTKVDKKVEPKSCRKTHTCPRCPAPEAAGAPSVFLFPPKPKDTLMISRTPEVTCVVVDVSHEDPEVKFNWYVDGVEVHNAKTKPREEQYNSTYRVVSVLTVLHQDWLNGKEYKCKVSNKALPAPIEKTISKAKGQPREPQVYTLPPSREEMTKNQVSLTCLVKGFYPSDIAVEWESNGQPENNYKTTPPVLDSDGSFFLYSRLTVDKSRWQQGNVFSCSVMHEALHNHYTQKSLSLSPG
light 2: B2 light 2
notes: Chains 1-2: B7-H4 arm; chains 3-4: CD3 arm; IgG1 EEE/RRR scaffold
Consider B4, for which, in test [12], binding was put at a Kd of 40 nM, the koff turned out to be 0.026 s⁻¹ and the on-rate (kon) worked out at 653000 M⁻¹ s⁻¹. In test [13], this molecule registered an equilibrium dissociation constant (Kd) of 22.3 nM, a koff of 0.00588 s⁻¹ and a kon of 264000 M⁻¹ s⁻¹. Also, in the test with human B7-H4 on cells, the “T cell mediated tumor cell killing EC50, HCC1954-Luc” value was found to be 75 nM and the “T cell mediated tumor cell killing, MDA-MB-468” value is 45.
